In publication PMC8163506, “A novel ATP dependent dimethylsulfoniopropionate lyase in bacteria that releases dimethyl sulfide and acryloyl-CoA” (eLife, 2021):

Molecular target: DddX (ATP-dependent DMSP lyase) of Psychrobacter sp. D2, recombinant (Psychrobacter sp. D2)
Experiment: SEC; gel filtration of purified DddX against molecular mass standards (semilog plot of mass versus Kav)

DddX (ATP-dependent DMSP lyase) of Psychrobacter sp. D2, recombinant (enzyme)
stoichiometry N: 2
